{
  "source": "paper PMC8887749",
  "about": "“The interaction of dengue virus capsid protein with negatively charged interfaces drives the in vitro assembly of nucleocapsid-like particles”",
  "key": {"[1]": {"target": "Dengue virus capsid (C) protein, recombinant DENVC (dengue virus serotype 2) (UniProt P29990)", "assay": "SAXS"}, "[2]": {"target": "DENV capsid protein (DENVC) (Dengue virus serotype 2, UniProt P29990 1-100)", "sequence (P29990 1-100)": "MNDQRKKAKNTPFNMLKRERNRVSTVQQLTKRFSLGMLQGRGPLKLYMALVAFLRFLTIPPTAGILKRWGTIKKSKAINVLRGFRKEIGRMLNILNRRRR", "assay": "fluorescence anisotropy; FITC-DENVC 50 nM; 1:1 DENVC:oligo stoichiometry; affinity stated only as nanomolar range; 55 mM NaH2PO4, 200 mM NaCl, 5 mM EDTA, pH 7.4, 25 C", "details": "protein: recombinant; chain copies: 2; single strand"}},
  "data": [
    {"molecule": "Dengue virus capsid (C) protein, recombinant DENVC (from UniProt P29990 1-100) (natural protein)", "values": [
      {"measurement": "stoichiometry N", "setting": "[1]", "result": 2}
    ]},
    {"molecule": "GGGGG (ssDNA)", "note": "[5-mer ssDNA]", "values": [
      {"measurement": "binding result", "setting": "[2]", "result": "binds"}
    ]},
    {"molecule": "TCCATGGTAGACAGAGGATGGGGGA (ssDNA)", "note": "[25-mer ssDNA]", "values": [
      {"measurement": "binding result", "setting": "[2]", "result": "binds"}
    ]}
  ]
}
